Experiment [1] addresses T1, human MPL (Thrombopoietin Receptor) (human, UniProt P40238 26-635).
T1 construct: whole, on cells; also called MPL on HEL.92.1.7 cells
T1 sequence (looked up): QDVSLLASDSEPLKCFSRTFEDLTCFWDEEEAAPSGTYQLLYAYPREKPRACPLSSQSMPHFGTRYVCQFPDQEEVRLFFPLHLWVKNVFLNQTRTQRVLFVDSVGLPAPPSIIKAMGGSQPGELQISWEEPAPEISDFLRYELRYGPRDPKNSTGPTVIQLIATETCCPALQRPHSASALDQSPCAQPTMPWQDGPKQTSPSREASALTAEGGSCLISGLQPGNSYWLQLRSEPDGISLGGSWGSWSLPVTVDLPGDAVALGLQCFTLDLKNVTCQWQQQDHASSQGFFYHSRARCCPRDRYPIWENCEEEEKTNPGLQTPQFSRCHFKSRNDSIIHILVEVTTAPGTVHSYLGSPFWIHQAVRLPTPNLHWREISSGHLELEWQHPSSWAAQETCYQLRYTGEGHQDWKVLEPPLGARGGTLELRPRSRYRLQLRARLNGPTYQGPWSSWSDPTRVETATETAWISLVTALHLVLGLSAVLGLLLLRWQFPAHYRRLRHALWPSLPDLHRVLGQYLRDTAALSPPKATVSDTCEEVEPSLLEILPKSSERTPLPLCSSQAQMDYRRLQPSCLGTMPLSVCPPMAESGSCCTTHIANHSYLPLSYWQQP
Briefly: CAR expressed in MPL-bearing HEL.92.1.7 cells; staining with MPL antibody (1.6.1) or 161-scFv-Nluc.

For experiment [2], the target named is T2, BCMA (human, UniProt Q02223 1-184).
T2 construct: whole, on cells; also called human BCMA; BCMA on L363 cells
T2 sequence (looked up): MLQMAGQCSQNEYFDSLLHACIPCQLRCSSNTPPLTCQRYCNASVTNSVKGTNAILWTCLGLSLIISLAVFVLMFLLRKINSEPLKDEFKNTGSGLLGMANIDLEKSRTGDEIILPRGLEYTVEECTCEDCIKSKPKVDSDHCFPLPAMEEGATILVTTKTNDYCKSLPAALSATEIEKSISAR
Briefly: CAR stably expressed in BCMA-bearing L363 and U266 cell lines; detection reagent not named.

B1: CD8SP-MPL-hu-161-2-BBz (other)
chain: DVVMTQSPSSLSASVGDRVTITCMASEDIYIRLAWYQQKPGNAPKLLIYAATSLETGVPSRFSGSGSGTDFTLTISSLQPEDFATYYCQQYWSSPWTFGGGTKVEIKGGGGSGGGGSGGGGSQVQLQESGPGLVKPSQTLSLTCTVSGYSITSDYTWNWIRQPPGNGLEWIGYITYSGSTSYNPSLKSRVLISVDTSKNQVSLKLSSVTAADTAVYYCARLGRRYTMDYWGQGTTVTVSSTRAKPTTTPAPRPPTPAPTIASQPLSLRPEACRPAAGGAVHTRGLDFACDIYIWAPLAGTCGVLLLSLVITLYCKRGRKKLLYIFKQPFMRPVQTTQEEDGCSCRFPEEEEGGCELRVKFSRSADAPAYQQGQNQLYNELNLGRREEYDVLDKRRGRDPEMGGKPRRKNPQEGLYNELQKDKMAEAYSEIGMKGERRRGKGHDGLYQGLSTATKDTYDALHMQALPPR
notes: Second generation CAR from a humanized MPL antibody (41BB, CD3z); Entry includes the CD8 signal peptide
Consider B1, for which, in experiment [1], the binding result is on record as “binds”.

B2: CD8SP-BCMA-huC13-F12-BBz (other)
chain: DIVLTQSPATLSLSPGDRATLSCRASESVTILGSHLIYWYQQKPGQAPRLLIQLASNVQTGIPARFSGSGSRTDFTLTISSLEPEDFAVYYCLQSRTIPRTFGQGTKLEIKRGGGGSGGGGSGGGGSQVQLVQSGSELKKPGESVKISCKASGYTFTHYSMNWVRQAPGQGLEWMGRINTETGEPLYADDFKGRFVFSLDTSASTAYLQISSLKAEDTAVYYCSNDYLYSLDYWGQGTLVTVSSTRAKPTTTPAPRPPTPAPTIASQPLSLRPEACRPAAGGAVHTRGLDFACDIYIWAPLAGTCGVLLLSLVITLYCKRGRKKLLYIFKQPFMRPVQTTQEEDGCSCRFPEEEEGGCELRVKFSRSADAPAYQQGQNQLYNELNLGRREEYDVLDKRRGRDPEMGGKPRRKNPQEGLYNELQKDKMAEAYSEIGMKGERRRGKGHDGLYQGLSTATKDTYDALHMQALPPR
notes: Second generation CAR (41BB, CD3z)
Take B2: the binding result in experiment [2] is given as “binds”.

The values above are taken from patent US20210137977A1 (UNIVERSITY OF SOUTHERN CALIFORNIA, published 2021).
